Measured values as given in the DeepSol protein solubility set.

Assay: soluble on expression in E. coli; label from the status in PepcDB or PDB records

Row | Sequence | soluble on expression in E. coli
1 | MNVCFFPRLKEFILNQDWNDPKSQLQQCCLTLRTEGKEPDIPLYKTLQTVGPSHARTYTVAVYFKGERIGCGKGPSIQQAEMGAAMDALEKYNFPQMAHQKRFIERKYRQELKEMRWEREHQEREPEEAEDIKK | soluble
2 | MNVILFDGICNLCNGAVTFVVKRDRKGLFRFVSLQSETGKSLLKRYAVESTNKTLYYFRNNRCYSKSTAILYILKDLGGFWQCLYPLILIPAKLRDAIYLLVSKYRYRIFGKADSCIKPFGFSSEESKRSDLEHHHHHH | not soluble
3 | MNVNKPTTEKKLIDLNNDIIHNFDVSIVMSFYKRYTEFRKVLPHNAPYLQRNGIEVIIVLDDPDEKSELLMLLQNYPFINWKLIINERKHAPRNHASVLNVGLKHATKKYILQIDPEVEFLTDIIWQMRDAIEKYPMHYILAMMAYVPYEQELTENNIKELDFIPWGNLMVERNHLYKLHGYDETFITWGGEDNNMRARLDMSGIKKFILPEAKTIHREKNYDPNERSKRINKHSISDWRKMNYPSEAIANKDIWGSEFNKVIYDWQDNQYAKDLCYTYLQQFIGFEIRHPAAFRKRHKKIVLCQAYNEEKLIEGFLTNMANYFDGIILLDDESTDRTWDLAIHDKIILKVKKKRSGFNDLENRNILLDLSAFFQSEWFCFMDIDERFDERFTNFSEFENNKEIHVVSFRGVYLWNDEQSYKGDIPNSNKGILTVYRMFRPIGHTHINTHKKLHFIATPYFTNTWQSNILFKDYGSMKENDRIRKYERYIQEDQQKDMSSGYDYLLNSENLYQLDKIEEYLEHHHHHH | not soluble
4 | MNVVVERKNVRNVRIQVLADGKVRVVAPPDFDVDSFISKHADWIKKKRAEIESLAEEIKGKERMLLLNGKFYHLVKDSGFEIKEGEEVGVVKYYSLRNLKRNLASILREELKRNVSFYSRLLGINYGRIFIKMQKTKWASCSSKGNLSFNLASLALPEKLREYIVVHELVHLLEPKHSRLFWETVGFYYPEYEEAERELKKYWIFVERNEVWRMLRALK | soluble
5 | MNWHPAACKISAKGGYLRVIIDASNVAHSRKNDEEKPCIENILSAAEELEKLGYEPVIIADASLRHEIDDKEQFRKLLEEGKFQQVPSGTSADHFILKMAEEEDAKILSNDVFRDYKDEFQDINSRRIPYTFREDKILIGTSGKPKKVKNILQKICNEALREFERKRIDAYKVKRGKKLSGIAIAKEAIDRISRSQEEGLEPRLEGIFMKLPLFERFMSMVEEVERTSNYIIFVLVHPKDYRDAVKYAGNIAVTVGDRLKLEHAPLVAVRNDLFLKPGTFELNIMYSEDVMEEAPYNVNITINDHDYSFVKKNSRNIASTLAARIGSWRFPIVSVKPSMLLEKPGEFEVVLEKGGNDLEHHHHHH | soluble
6 | MNYAEICIIKRDGKREDFSISKIKNAVSKAFSATGINDEQQLIADITMNVIGQFASPTITVEEIQDLVEKELMKVRPEVAKKYIIYREWRNTERDKKTQMKHVMDGIVAIDKNDVNLSNANMSSHTPAGQMMTFASEVTKDYTYKYLLPKRFAEAHQLGDIHIHDLDYYPTKTTTCIQYDMDDLFERGFRTKNGSIRTPQSIQSYATLATIIFQTNQNEQHGGQAIPAFDFFMAKGVSKSFRKHLASFISFYVQMNKGEEIEEKAIRTVIAEHLSSIKASELERETLRMALTALQINIDKEHLNQIIEKAFVQTQKDTHQAMEGFIHNLNTMHSRGGNQVVFSSINYGTDTSAEGRMVIEELLKATVEGLGTRGEVPVFPIQIFKIKNGVSYTEADYEKAMANFDAAMEGKLKFEAPNFDLFLKACHTTAKALFPNFMFLDAPFNQNEKWDANDPQRYRYELATMGCRTRVFENVAGEKSSLGRGNLSFTTLNMPRLAIEARIKAENMTEDGHNKDAVERKAKEIFIESIHETATLIAEQLYERYQYQRTALARQFPFMMGNDVWKGGAALNPNEQVGDVLRSGTLGIGFLGGHNAMVALYGEGHGHSQKAWDTLYEAVLEINKVADEYKAKYNLNYSVLATPAEGLSGRFTRMDRRKYGKIKGVTDNDYYVNSFHVDVKEPISIVEKIKREAPFHAITRGGHITYVELDGEAQKNVRAIAKIVKVMFDEGIGYGSINHPVDTCHNCGYKGVIYDKCPVCQSENILRMRRITGYLTGDLSSWNSAKRAEEKDRVKHG | not soluble
7 | MNYDAKQPPANLADSIQQKETVQALYDLLDKNMADFDASLAGMDKAETADLKEVSDTREIYDFIRYHYGEFGQREAELLLRMENPLNFIVENWPCHNLETLAMNYLADKTIKEPNKKEMPQSGHDTKDAEKPSILKQIKTNQGQIKANRQETRQQSITAERPRDGEAR | not soluble
8 | MNYEGKTKIVKVTGDYALLEFKDDITAGDGLKHDVLTGKGSICAETTAILMKYLSEKGIKTHLVEYIPPRTLKVIPLKMFPLEVVVRLKKAGSFVRRYGGAEGEDLPVPLVEFFIKDDERHDPMVCVDHLEILGIATKKQAEKMKEAAVKITLALKEFFERANFELWDIKYEFGLDKDGNVVLGDEISPDTFRLRKKGEIFDKDVYRRDLGDPLKKYREVLELCRSLNSQ | soluble
9 | MNYKLTLHPGSNPVEEFTSIPHGVTSLDLSLNNLYSISTVELIQAFANTPASVTSLNLSGNSLGFKNSDELVQILAAIPANVTSLNLSGNFLSYKSSDELVKTLAAIPFTITVLDLGWNDFSSKSSSEFKQAFSNLPASITSLNLRGNDLGIKSSDELIQILAAIPANVNSLNLRGNNLASKNCAELAKFLASIPASVTSLDLSANLLGLKSYAELAYIFSSIPNHVVSLNLCLNCLHGPSLENLKLLKDSLKHLQTVYLDYDIVKNMSKEQCKALGAAFPNIQKIILVDKNGKEIHPSHSIPISNLIRELSGKADVPSLLNQCLIFAQKHQTNIEDLNIPDELRESIQTCKPLLEHHHHHH | soluble
10 | MNYLERLVESWPVEQCSAAVVTSDEVTTAGDGNIRYELASVTKLLSTYAVLIAVEEGAFALDTPCGPEGATVRHLLAHASGVGFRSTDACKAPEQRRIYSSYGFELLADVIAHEADMPFAQYLDEAVCQPIGMTHTQLWGSAGHESYSTVNDLVLFAREILQPSLIAQETLVQACTVQFPELHGIVPGYGMYKPCPWGLGFEIKGEKNPHWTAAVMPHTTVGHFGQAGTYLWVDRESQRAMVALTNRSFGDWAKPLWAETNAGVWEHLDQLNL | not soluble
11 | MNYYMHHIGDYKSDASYLSLQEHGIYFLLLSHYYATEKPIPADKTHTYRIAYARTKKEKSAVDFVLDTFFSLQEDGWHNKRCDEEIAAYKEGDAWHEHKEANKNGQNTRTRRHRKERSRLFAELKDHQVTPEWNMPIKELRLLHKKTCHAPVTAVTPPVTPVTPVTPVTPVTPTQEESFTGPSSSLRSEERLIRAENETSIKELRQWNAKTNAKTGNAPVTAVTAKPLTINPLTIISSSLCSEESLVFAEDGNATGSTGKPKRSPHGSRLPDD | not soluble
12 | MPADRVAFPPTLIGIELDPRQGLSKQLYEILRRQILDGRLSSGMRLPASRDLAKSLAISRNSVMRAFDQLYAEGFIEGRVGDGTYVAQLAGRHAALQRNAPGKLSTNLPTGLHTGLCTGLSTFAVENTQNLLNQVIHNPALQRVEKHHLNEPPDDRPKAFRVGVPAFDLFPFALWGKLYASFWRKPNLDQLGYGAAAGEWRLRELVAAYLRSSRGLGCTAEQIVITSGAQHAISLCAQLLVTPGEGVAVENPGYRAAGHAFALAGARLQGVAVDSEGMRCADLEQTDCRLAYVTPSHQYPTGVVMSLARRLELLAWAEKNQSWIVEDDYDGEYRYSGSPLAPLAALDQNGRVLYVGTFGKIVFPALRLGYLVLPEHLVRPFSQRKAVDMRHTEIGVQAVMAQFIAQGHFQRHIRRMRRAALSRRDALLAGWPDNVPGCAAMPKVVAGLHVMVKVDSVAREQALIAKARSVGVEMSPLSGYWLSDSDEPVDNRAGLVLGFAAVPEPAIADALNRLRMVWSE | not soluble
13 | MPAHRSDPTSSVIELNDVVFCWPGASSPTLDIAHLQIARGEHLFVKGPSGCGKSTLLSLLTGINTATQGVVSLLGSDLSRLSASQRDRFRADHIGYIFQQFNLLPYLSVLDNVTLPCHFSALRKQQVDGPLSHKAQSLLERLHLPSALLNKPVTELSIGQQQRVAAARALMGEPQLIIADEPTSALDYDNREAFIALLREEAERVGSTLVFVSHDPTLEKLFERSVHLPTLNRAGGWQ | not soluble
14 | MPANGGRGVGEGESPVSFFERLKAGLQKTKEALIGQVNTVMSVFRKIDDDLFDELEEALIRGDVGVATSAKLVEELRREARQKGLKNGDELLPLLKELVAERLGSGAAPLRLNEGGLTVILVVGVNGVGKTTTIGKLARHLREDRGLKVVLAAADTFRAAAMDQLKVWGERAGAEVVTGPEGADPAAVAFDGVKAARASGADVLIVDTAGRLHNKAHLMAELGKIARVLGREVPGAPHETLLVLDATTGQNAIQQTRLFKETVPVTGIALTKLDGTAKGGVVVAIADTEQVPVKFIGVGERLDDLQPFDPRQFVEALFSE | soluble
15 | MPAPEAPTSTLPPERPLTNLQQQIQQLVSRQPNLTAGLYFFNLDSGASLNVGGDQVFPAASTIKFPILVAFFKAVDEGRVTLQERLTMRPDLIAPEAGTLQYQKPNSQYAALEVAELMITISDNTATNMIIDRLGGAAELNQQFQEWGLENTVINNPLPDMKGTNTTSPRDLATLMLKIGQGEILSPRSRDRLLDIMRRTVTNTLLPAGLGKGATIAHKTGDIGIVVGDAGMVDMPNGQRYVAAMMVKRPYNDPRGSELIRQVSRMVYQAFEKLSPPEQKLISEEDLNSAVDHHHHHH | soluble
16 | MPAPLTFARLTQVDPNLITAHMRDPRLAIHMPLMPDSWSDAQTVSFVQSKEACWDRDGLGHWAFLHQDRYVGWGGFQREGEEWDFGLVLCPAHFGLGLPIARKALDFAHADPRIPFVTFLLPPSRQHLGALRRLGAQPLGETDHAGHRFLKFRLDTA | not soluble
17 | MPASVTHVIFDFDGLLVDTESAYTEANMELLRKYGHVFTMDLKRRQMGKRHDESIRWLINELKIGDLVTPEEYSRQYDELLIEMFKRSPAMPGAEKLVRHLLHTGVPVALCTGSCSRTFPTKLDNHKDWVNMIKLQVLSGDDPEVKHGKPHPDPFLVTMKRFPQVPESADKVLVFEDSYNGVLSALDAGMQCVMVPERSIFDPDSDPEFKNRVTVILNSLEQFKPEDFGLPPY | not soluble
18 | MPAYKYNRVFLIVMDSVGIGEAPDAADFNDEGAHTLGHIAEHMNGLHMPNMAKLGLGLIEDIKGVEKTEHPLAYYGKLQEASNGKDTMTGHWEIMGLYIDKPFKVFPEGFPDELLQELEKRSGRKIIGNKPASGTAILDELGQEHMETGALIVYTSADSVLQIAAHEEVVPLEELYRICETARELTLDPKYMVGRIIARPFVGEPGQFKRTPNRHDYALKPFDRTVMNELKDCGLDVISIGKISDIYDGEGITSSRRTVSNMDGMDKVIDTLGEDFTGLSFANLVDFDALFGHRRDPEGYGRALEEFDARLPEVFGKMREDDLLIITADHGNDPIHHGTDHTREYVPILAYSKKHKKAQMLPLADTFADIGATIADNFQTNKPKYGKSFLSLLQ | not soluble
19 | MPCQSKKNPSEVHISSGRDLVQRTFVFSNTTGKDFLLKLITSSEAISFPTNIFRFPPSSHRVIQFRVNSSKLSHWDKLNMSIKGYVMPIYAKNLKQFIDQKSTAGTQDQEAFSLAVKFTDQYSAPQVLINLPGSATCIESMDHPVGIEELDTITAVNIEKDALTAAPIGNLMGFVEEYKRRNTNKGGCWLSNYICGGEEEQKEKKSIRGASRRSSRSSKKSAKSAGSSSCRSQSRKKNKKSQVNVCLEATPCGGSTIQA | not soluble
